Values of other authors as cited in patent US20050074809A1, “System and method for systematic prediction of ligand/receptor activity” (priority 2001, published 2005).

How the values were obtained:
[1] = molecular target: HLA-A*0201 molecule (Homo sapiens, UniProt P04439, D140Y/D185E/D98H/E176V/E277Q/G131W/G231S/I119V/I121R/I166T/I218V/L300P/L318F/N151K/N90K/P208A/P217A/Q86G/Q94H/R138H/R169H/T345S); conditions: result in words; Kawakami and Rosenberg 1996
[2] = molecular target: HLA-DRB1*0101 molecule (Homo sapiens, UniProt P01903+P01911, A100R/D57E/F55L/F60I/F76Y/I96L/L162R/M171V/P40L/Q125E/R42F/V115G/Y59C); conditions: result in words; reported binding data

Row | Sequence | binding to HLA-A*0201 [1] | binding to HLA-DR1(0101) (HLA-DRB1*0101) [2]
1 | PLWGPRALV [Peptide of the mage-3 antigen (SWISSPROT:MAG3_HUMAN)] | binds | 
2 | FAGKNTDLE |  | does not bind
3 | PKPPKPVSKMRMATPLLMQALPMG [Peptide of class II invariant chain (SwissProt Acc. P04233)] |  | binds
